Reference: US20220073883A1, “COMPOSITIONS AND METHODS FOR GENERATION OF HEART FIELD-SPECIFIC PROGENITOR CELLS” (The Johns Hopkins University, priority 2018, published 2022)
“Also recorded” adds a separate entry of the source.

B1: Wnt3A: Wnt protein (canonical) (protein, UniProt P56704 19-352, looked up)
Protein Wnt-3a: SYPIWWSLAVGPQYSSLGSQPILCASIPGLVPKQLRFCRNYVEIMPSVAEGIKIGIQECQHQFRGRRWNCTTVHDSLAIFGPVLDKATRESAFVHAIASAGVAFAVTRSCAEGTAAICGCSSRHQGSPGKGWKWGGCSEDIEFGGMVSREFADARENRPDARSAMNRHNNEAGRQAIASHMHLKCKCHGLSGSCEVKTCWWSQPDFRAIGDFLKDKYDSASEMVVEKHRESRGWVETLRPRYTYFKVPTERDLVYYEASPNFCEPNPETGSFGTRDRTCNVSSHGIDGCDLLCCGRGHNARAERRREKCRCVFHWCCYVSCQECTRVYDVHTCK
B2: Activin A: TGF-β protein; key ligand for Activin/TGF signaling (protein, UniProt P08476 311-426, looked up)
Inhibin beta A chain: GLECDGKVNICCKKQFFVSFKDIGWNDWIIAPSGYHANYCEGECPSHIAGTSGSSLSFHSTVINHYRMRGHSPFANLKSCCVPTKLRPMSMLYYDDGQNIIKKDIQNMIVEECGCS
modifications: Inhibin beta A chain
B3: Wnt11: Wnt protein (noncanonical) (protein, UniProt O96014 25-354, looked up)
Protein Wnt-11: IKWLALSKTPSALALNQTQHCKQLEGLVSAQVQLCRSNLELMHTVVHAAREVMKACRRAFADMRWNCSSIELAPNYLLDLERGTRESAFVYALSAAAISHAIARACTSGDLPGCSCGPVPGEPPGPGNRWGGCADNLSYGLLMGAKFSDAPMKVKKTGSQANKLMRLHNSEVGRQALRASLEMKCKCHGVSGSCSIRTCWKGLQELQDVAADLKTRYLSATKVVHRPMGTRKHLVPKDLDIRPVKDSELVYLQSSPDFCMKNEKVGSHGTQDRQCNKTSNGSDSCDLMCCGRGYNPYTDRVVERCHCKYHWCCYVTCRRCERTVERYVCK
B4: Noggin: blocks Bmps from binding their receptors (protein, UniProt Q13253 28-232, looked up)
Noggin: QHYLHIRPAPSDNLPLVDLIEHPDPIFDPKEKDLNETLLRSLLGGHYDPGFMATSPPEDRPGGGGGAAGGAEDLAELDQLLRQRPSGAMPSEIKGLEFSEGLAQGKKQRLSKKLRRKLQMWLWSQTFCPVLYAWNDLGSRFWPRYVKVGSCFSKRSCSVPEGMVCKPSKSVHLTVLRWRCQRRGGQRCGWIPIQYPIISECKCSC
B5: Wnt5A: Wnt protein (noncanonical) (protein, UniProt P41221 62-380, looked up)
Protein Wnt-5a: IIGAQPLCSQLAGLSQGQKKLCHLYQDHMQYIGEGAKTGIKECQYQFRHRRWNCSTVDNTSVFGRVMQIGSRETAFTYAVSAAGVVNAMSRACREGELSTCGCSRAARPKDLPRDWLWGGCGDNIDYGYRFAKEFVDARERERIHAKGSYESARILMNLHNNEAGRRTVYNLADVACKCHGVSGSCSLKTCWLQLADFRKVGDALKEKYDSAAAMRLNSRGKLVQVNSRFNSPTTQDLVYIDPSPDYCVRNESTGSLGTQGRLCNKTSEGMDGCELMCCGRGYDQFKTVQTERCHCKFHWCCYVKCKKCTEIVDQFVCK

Legend:
Assay type in all cases: cell-based, mouse
[1] = system: ESC-derived cardiac spheroids (Hcn4-GFP; Tbx1-Cre; Ai9); assay: heart field specification: Hcn4-GFP+ and Tbx1-Cre, RFP+ CPCs in cardiac spheroids by FACS at day 5.5; details: for Bmp4-mediated induction of RFP+ cells (SHF) / Bmp4-mediated induction of GFP+ cells (FHF): in combination with Bmp4 (1.25 ng/ml), Noggin 100 ng/ml, dorsomorphin, K2288, DMH1 100 nM; for Bmp4-mediated induction of RFP+ cells (SHF): IWP-2 0.5 μM; for induction of GFP+ cells (FHF) / induction of RFP+ cells (SHF): increasing levels of the factor, day 5.5
Description: (§1) Next, an embryonic stem cell (ESC) line (ESCHcn4-GFP; Tbx1-Cre Ai9) was established from the mice to determine if heart field specification can be recapitulated in a PSC system. It was hypothesized that a 3D multicellular system would better resemble heart field development in vivo, as early development is a highly dynamic process that involves tissue-tissue interactions between multiple cell types. Since CPCs are specified during mid-late gastrulation 7, 8, multicellular 3D spheroids were generated with the PSCs and treated them with various concentrations of Activin A and Bmp4 to determine whether induction of the early mesoderm influences heart field specification (FIGS. 1C and 1D).
IPA utilizes an input gene list and a curated database of literature-derived pathways to infer which canonical pathways are most significant to the input data set. The analysis was focused on pathways related to ‘organism growth and development’. […] The effect of Bmp signals was evaluated during heart field specification. In order to minimize the possibility of influencing heart field cells after induction, all of the data were analyzed within 12 hs after the appearance of GFP^+/RFP^+ cells.
(§2) Mouse ESCs and human iPSCs were maintained and differentiated as previously described^5, 43, 68 Briefly, mESCs were maintained on gelatin-coated dishes in maintenance medium (Glasgow minimum essential medium supplemented with 10% fetal bovine serum and […] Chir99021 and 1 μM PD98059 or 1000 U/ml ESGRO (Millipore, Billerica, Mass.), Glutamax, sodium pyruvate, MEM non-essential amino acids (Thermo Fisher Scientific). For spheroid formation and differentiation, mouse ESCs were plated in IMDM/Ham's F12 (Cellgro) (3:1) supplemented with N2, B27, penicillin/streptomycin, 2 mM GlutaMAX, 0.05% BSA, 5 ng/ml L-ascorbic acid (Sigma-Aldrich) and α-monothioglycerol (MTG; Sigma-Aldrich) at a final density of 100,000 cells/ml to allow spheroid formation. After 48 h spheroids were collected and transferred to ultra-low attachment plastic surface and induced for 40 hours with Activin A, Bmp4, Wnt3A, Wnt5A, Wnt11 (R&D Systems) alone or in combination. Human iPSCs were maintained in Geltrex-coated T25 flasks using Essential 8 medium. For spheroid formation and differentiation, hiPSCs were plated in RPMI plus B27 minus insulin with Bmp4 and CHIR99021 and incubated for 48 h. After 48 h media was changed to RPMI plus B27 minus insulin. The hiPSC line used in this study was developed by Dr. Linzhao Cheng, the Johns Hopkins University, and had was generated from a de-identified patient using an approved IRB protocol.
(§3) Mouse embryos (E7.75) were dissected using forceps under a stereomicroscope (Zeiss) and regions of interest were dissociated and harvested using TrypLE. Embryoid bodies (EBs) and cells were dissociated and harvested using TrypLE. Single-cells were analyzed for RFP/GFP expression or sorted using a SH800 Cell sorter (Sony Biotechnologies). Live cells were analyzed for RFP and GFP expression and stained with antibodies targeting for the presence of appropriate markers. […] Data was analyzed using FlowJo software.

[2] = system: ESC-derived cardiac spheroids; assay: qPCR of FHF (tbx5, hcn4) and SHF (tbx1, fgf10) markers in treated spheroids; details: in combination with Bmp4 (1.25 ng/ml), Wnts 100 ng/ml, dorsomorphin, K2288, DMH1 100 nM; for expression of SHF markers (tbx1, fgf10): IWP-2 0.5 μM
Protocol: To investigate the crosstalk between Bmp and Wnt signals, the spheroids were treated with Bmp4 and Wnts in combinations and analyzed expression levels of FHF (tbx5, hcn4) and SHF (tbx1, fgf10) markers.
as §2
RNA isolation was performed using either RNeasy Micro Kit (Cat #74004, Qiagen) or […]® PicoPure® RNA Isolation Kit following the manufacturer's instructions, and cDNA was generated using the high-capacity cDNA reverse transcription kit (Applied Biosystems). qPCR reactions were performed using the Taqman (Applied Biosystems) or Sybr Select qPCR mix (Thermo Fisher) with indicated primers. Gene expression levels were normalized to Gapdh. For the clonal cell-fate analysis, single Isl1-Cre RFP+, Cxcr4− and Isl1-Cre RFP^+, Cxcr4^+ cells were sorted at day 5.5 into 384-well plates and allowed to grow and differentiate for 7 days. […] RNA was isolated from 24 wells with colonies from Cxcr4− and Cxcr4+ sorted cells, respectively. Ct values<30 were considered positive. All samples were also analyzed for gapdh to exclude false-positive results.

canonical Wnt activity = assay: Topflash luciferase assay; details: in combination with Bmp4 (1.25 ng/ml); 88 h of differentiation
Protocol: To test this, canonical Wnt activity was measured with its readout Topflash.
For Tbx1 and Tbx5 knockdown experiments, Tbx1 and Tbx5 ON-TARGETplus SMARTpool siRNA or scrambled siRNA (Dharmacon/Thermo Fisher Scientic) was used at 5 nM for cell transfection. Cells were transfected with Lipofectamine LTX (Life Technologies) in single-cell suspensions. For TOP-flash luciferase assays, mESCs were transfected with Topflash constructs and Renilla constructs and analyzed as previously described 5.

[3] = system: ESC-derived cardiac spheroids; assay: cardiogenesis: cTnT+ cardiomyocytes in cardiac spheroids at day 9 (flow cytometry); details: varying/increasing concentrations; cTnT+ at day 9
Description: as §1, with “1D). After 5 days of differentiation (120 h), GFP+ and RFP+ cells started to appear in the spheroids. The spheroids were analyzed for GFP+ and RFP+ cells by fluorescent activated cell sorting (FACS) at day 5.5 (132 h). […] The double positive GFP+/RFP+ cells correlated with the total number of GFP+ and RFP+ cells (FIG. 6J) and were sporadically interspersed within the GFP+ domain (FIG. 6K).” for “1D).”
The overall effects on cardiogenesis were evaluated by analyzing the number of cardiomyocytes at day 9 (FIG. 6L).
as §2, with “After 48 h media was changed to RPMI plus B27 minus insulin. The hiPSC line used in this study was developed by Dr. Linzhao Cheng, the Johns Hopkins University, and had was generated from a de-identified patient using an approved IRB protocol.” left out
as §3, with “Embryoid bodies (EBs) and cells were dissociated and harvested using TrypLE.” left out

Row | Molecule | Bmp4-mediated induction of RFP+ cells (SHF) [1] | Bmp4-mediated induction of GFP+ cells (FHF) [1] | expression of SHF markers (tbx1, fgf10) [2] | expression of FHF markers (tbx5, hcn4) [2] | topflash / Wnt activity (canonical Wnt activity) | induction of GFP+ cells (FHF) [1] | induction of RFP+ cells (SHF) [1] | effect on cardiogenesis [3]
1 | CC(C)Oc1ccc(-c2cnc3c(-c4ccnc5ccccc45)cnn3c2)cc1 [DMH1, reference compound] | without significantly affecting | suppressed | without significantly affecting | suppressed | without significantly affecting |  |  | 
2 | c1cc(-c2cnn3cc(-c4ccc(OCCN5CCCCC5)cc4)cnc23)ccn1 [dorsomorphin, reference compound] |  |  |  |  | no effect |  |  | 
3 | Cc1ccc2nc(NC(=O)CSc3nc4c(c(=O)n3-c3ccccc3)SCC4)sc2c1 [IWP-2, reference compound] | abolished |  | suppressed |  |  |  |  | 
4 | COc1cc(-c2cc(-c3cccc(O)c3)cnc2N)cc(OC)c1OC [K2288, reference compound] | without significantly affecting | suppressed | without significantly affecting | suppressed | without significantly affecting |  |  | 
5 | B1 |  |  | further increase | reduction | further increased | did not affect | increased numbers | 
6 | B2 |  |  |  |  |  | no apparent effect; also recorded: no overall effect | no apparent effect; also recorded: no overall effect | modest effect; also recorded: did not have a significant effect
7 | B3 |  |  | overall reduction | overall reduction |  |  |  | 
8 | B4 | abolished | abolished |  |  | markedly reduced; also recorded: inhibition |  |  | 
9 | B5 |  |  | overall reduction | overall reduction |  |  |  | 
